Residue numbers refer to the chain shown, from its start. Names and notes keep the numbering of the source. Blank lines part the entries; values can stand above or below the molecule they belong to.
Tests used:
[1] = target: Karyopherin-β2 (full length, GST tag removed) (UniProt Q92973); assay: ITC
Kapβ2(W373A) = target: T1, Kapβ2(W373A) (UniProt Q92973-2 1-890, W373A); assay: ITC
T1 sequence (looked up): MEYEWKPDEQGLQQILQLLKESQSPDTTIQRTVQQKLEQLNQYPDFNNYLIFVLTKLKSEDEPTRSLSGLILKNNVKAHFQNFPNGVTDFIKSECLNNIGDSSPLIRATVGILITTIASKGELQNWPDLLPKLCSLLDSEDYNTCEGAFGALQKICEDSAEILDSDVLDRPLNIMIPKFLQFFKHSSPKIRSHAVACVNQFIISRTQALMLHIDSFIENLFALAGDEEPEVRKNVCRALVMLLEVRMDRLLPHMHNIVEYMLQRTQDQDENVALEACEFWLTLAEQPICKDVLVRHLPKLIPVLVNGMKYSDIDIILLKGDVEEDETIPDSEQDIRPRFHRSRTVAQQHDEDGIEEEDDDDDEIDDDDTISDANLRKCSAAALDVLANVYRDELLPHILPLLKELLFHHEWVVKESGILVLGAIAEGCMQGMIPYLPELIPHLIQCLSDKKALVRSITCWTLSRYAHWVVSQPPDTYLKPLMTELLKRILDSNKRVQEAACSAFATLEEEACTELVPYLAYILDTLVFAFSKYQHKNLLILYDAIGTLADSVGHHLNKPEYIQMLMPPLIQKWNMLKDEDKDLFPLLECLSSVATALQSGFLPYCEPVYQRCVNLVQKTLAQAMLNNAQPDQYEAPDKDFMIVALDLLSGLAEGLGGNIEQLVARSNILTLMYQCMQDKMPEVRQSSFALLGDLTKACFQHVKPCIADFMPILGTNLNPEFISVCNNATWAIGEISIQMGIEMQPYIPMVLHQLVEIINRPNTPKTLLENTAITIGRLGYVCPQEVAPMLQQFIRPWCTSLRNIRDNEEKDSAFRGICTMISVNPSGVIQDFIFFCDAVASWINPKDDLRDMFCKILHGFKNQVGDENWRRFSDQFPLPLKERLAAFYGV

[2] = target: T2, Karyopherin-β2 (full length, GST tag removed) (UniProt Q92973-2 1-890); assay: ITC
T2 sequence (looked up): T1 sequence (looked up) with A373W

[3] = target: T2, Karyopherin-β2 (full length, GST tag …); assay: SEC

Chain of Karyopherin-β2 (full length, GST tag removed) (UniProt Q92973) (Q92973 9-898): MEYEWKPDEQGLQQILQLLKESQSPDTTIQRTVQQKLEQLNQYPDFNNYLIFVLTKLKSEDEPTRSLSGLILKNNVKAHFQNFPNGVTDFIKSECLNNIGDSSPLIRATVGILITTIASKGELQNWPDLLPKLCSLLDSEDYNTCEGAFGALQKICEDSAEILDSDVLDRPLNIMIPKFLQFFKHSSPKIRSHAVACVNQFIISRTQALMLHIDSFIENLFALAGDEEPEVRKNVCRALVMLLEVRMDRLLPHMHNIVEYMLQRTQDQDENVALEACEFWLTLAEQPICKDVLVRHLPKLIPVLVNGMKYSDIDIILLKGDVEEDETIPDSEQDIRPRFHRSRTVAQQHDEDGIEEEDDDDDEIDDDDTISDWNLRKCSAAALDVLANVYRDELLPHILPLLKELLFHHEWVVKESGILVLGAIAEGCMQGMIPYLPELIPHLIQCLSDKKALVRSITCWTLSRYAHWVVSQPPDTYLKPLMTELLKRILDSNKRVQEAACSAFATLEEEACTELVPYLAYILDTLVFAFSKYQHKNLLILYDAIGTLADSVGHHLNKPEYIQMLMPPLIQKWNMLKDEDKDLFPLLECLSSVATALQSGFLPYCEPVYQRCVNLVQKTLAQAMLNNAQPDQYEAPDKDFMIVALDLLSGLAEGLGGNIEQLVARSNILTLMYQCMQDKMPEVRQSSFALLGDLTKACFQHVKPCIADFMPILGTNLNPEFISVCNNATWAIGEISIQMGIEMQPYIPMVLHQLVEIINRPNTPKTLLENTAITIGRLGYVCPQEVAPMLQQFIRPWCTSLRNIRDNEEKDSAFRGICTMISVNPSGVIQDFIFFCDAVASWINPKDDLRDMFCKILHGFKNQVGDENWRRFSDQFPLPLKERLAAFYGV

Kd [1]: 3200 nM
Molecule: MBP-HNRNPH2 R212A (ITC) (from UniProt P55795 103-225) (domain or fragment)

Kd (Kapβ2(W373A)): 9 nM
Molecule: HNRNPM PY-NLS (domain or fragment)

Kd [2]: 50 nM
Kd (Kapβ2(W373A)): 6100 nM
B1: MBP-HNRNPH2(103-225) (domain or fragment, UniProt P55795 103-225, looked up)
chain: NSPDTANDGFVRLRGLPFGCSKEEIVQFFSGLEIVPNGMTLPVDFQGRSTGEAFVQFASQEIAEKALKKHKERIGHRYIEIFKSSRAEVRTHYDPPRKLMAMQRPGPYDRPGAGRGYNSIGRG

binding result [3]: binds
B2: HNRNPH2(103-225) (as used for SEC and cryo-EM) (domain or fragment, UniProt P55795 103-225, looked up)
chain: B1 chain
modifications: mild crosslinking with 0.025% glutaraldehyde in the cryo-EM sample

fold decrease of affinity against wild type [2]: ~200 fold
B3: MBP-HNRNPH2(103-225) P209L (domain or fragment, UniProt P55795 103-225, looked up)
chain: B1 chain with P107L

Kd [2]: 40 nM
Molecule: EVRTHYDPPRKLMAMQRPGPYDRPGAGRGYNSIGRG (domain or fragment, UniProt P55795 190-225, looked up) [MBP-HNRNPH2(190-225)]
